US20070105771A1 (Y S THERAPEUTICS, published 2007)

Legend:
[1] = target: T1, Purified recombinant human CD26 (rhDipeptidyl peptidase IV), R&D Systems CAT #1180-SE (human, UniProt P27487 29-766); assay: SPR (Biacore), Fab
T1 construct: Bought recombinant protein; also called hu-CD26; soluble human CD26

[2] = target: T1, Purified recombinant human CD26 …; assay: SPR (Biacore), Fab; remark: listed apart in the source
[3] = target: T1, Purified recombinant human CD26 …; assay: SPR (Biacore), CD26 preoccupied by the Fab; competitor 14D10 ascites
Text: A specificity analysis of selected Fabs comprising pairs of variant VH and VL sequences was done. […] The analysis was done using Biacore® as described in Example 1.

[4] = target: T1, Purified recombinant human CD26 …; assay: SPR (Biacore)

T1 sequence (P27487 29-766 limits assumed): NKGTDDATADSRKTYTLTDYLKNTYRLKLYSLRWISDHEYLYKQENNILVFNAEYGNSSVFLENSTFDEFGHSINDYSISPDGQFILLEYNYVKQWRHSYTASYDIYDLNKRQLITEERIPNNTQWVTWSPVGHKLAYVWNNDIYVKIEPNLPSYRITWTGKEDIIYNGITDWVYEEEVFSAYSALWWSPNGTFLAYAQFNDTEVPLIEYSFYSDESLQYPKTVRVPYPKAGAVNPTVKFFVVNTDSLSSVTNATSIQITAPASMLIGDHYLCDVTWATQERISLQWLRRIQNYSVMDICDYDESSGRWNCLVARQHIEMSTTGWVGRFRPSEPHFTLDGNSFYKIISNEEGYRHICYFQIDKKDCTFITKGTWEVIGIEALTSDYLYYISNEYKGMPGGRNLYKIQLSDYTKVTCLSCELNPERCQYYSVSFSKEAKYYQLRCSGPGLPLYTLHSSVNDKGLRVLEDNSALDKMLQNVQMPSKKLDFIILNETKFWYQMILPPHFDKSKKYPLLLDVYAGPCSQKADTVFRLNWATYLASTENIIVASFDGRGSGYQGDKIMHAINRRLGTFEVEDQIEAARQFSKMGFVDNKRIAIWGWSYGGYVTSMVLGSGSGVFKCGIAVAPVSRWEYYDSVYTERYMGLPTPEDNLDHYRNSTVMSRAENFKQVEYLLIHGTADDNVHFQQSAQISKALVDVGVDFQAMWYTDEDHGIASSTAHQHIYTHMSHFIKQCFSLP

Row | Binder | Kd [1] | Kd [2] | percent decrease in binding of 14D10 to CD26 [3] | ratio of the Kd of CM03 Fab to the Kd of individual clone [1] | Kd [4]
1 | Fab X391 (X388 VH and X376 VL) (Fab, V domains shown, Fab made in E. coli) VH: EVQLVQSGGGLKQPGETLRLSCTASGYSLTTYGVHWVRQAPGKGLEWMGVIWGDGRTDYDSSFMSRVTISKDTSKSTAYLQLNSLRAEDTAVYYCTRNRHDWFDYWGQGTTVTVSS VL: DILMTQSPSSLSASPGDRVTISCRASQDIRNNLNWYQQKPGQAPRLLIYYSSNLHSGVPDRFSGSGSGTDFTLTISRLEPEDFAAYYCQQSIKLPLTFGSGTKVEIK | 2120 pM | 2120 pM | ≥ 80% | – | –
2 | Fab X389 (X384 VH and X376 VL) (Fab, V domains shown, Fab made in E. coli) VH: EVQLVESGAGVKQPGGTLRLTCTASGFSLTTYGVHWVRQAPGKGLEWVGVIWGDGRTDYDAAFMSRVTISKDTSKSTVYLQMNSLRAEDTAVYYCMRNRHDWFDYWGQGTTVTVSS VL: DILMTQSPSSLSASPGDRVTISCRASQDIRNNLNWYQQKPGQAPRLLIYYSSNLHSGVPDRFSGSGSGTDFTLTISRLEPEDFAAYYCQQSIKLPLTFGSGTKVEIK | 380 pM | 380 pM | ≥ 80% | 4.29 | –
3 | Fab X392 (X384 VH and X379 VL) (Fab, V domains shown, Fab made in E. coli) VH: EVQLVESGAGVKQPGGTLRLTCTASGFSLTTYGVHWVRQAPGKGLEWVGVIWGDGRTDYDAAFMSRVTISKDTSKSTVYLQMNSLRAEDTAVYYCMRNRHDWFDYWGQGTTVTVSS VL: DILLTQSPSSLSATPGERATITCRASQGIRNNLNWYQQKPGQAPRLLIYYSSNLQSGVPSRFSGSGSGTDFTLTISRLQPEDVAAYYCQQSIKLPFTFGSGTKVEIK | 240 pM | 240 pM | ≥ 80% | 6.79 | –
4 | Fab X390 (X385 VH and X376 VL) (Fab, V domains shown, Fab made in E. coli) VH: EVQLVQSGGGVKQPGETLRLTCTASGFSLTTYGVHWVRQAPGKGLEWVGVIWGDGRTDYDAAFMSRVTISKDTSKSTAYLQMNSLRAEDTAVYYCMRNRHDWFDYWGQGTTVTVSS VL: DILMTQSPSSLSASPGDRVTISCRASQDIRNNLNWYQQKPGQAPRLLIYYSSNLHSGVPDRFSGSGSGTDFTLTISRLEPEDFAAYYCQQSIKLPLTFGSGTKVEIK | 960 pM | 960 pM | ≥ 80% | 1.7 | –

The remaining lines, values ahead:

Row | Kd [1] | Kd [2] | percent decrease in binding of 14D10 to CD26 [3] | ratio of the Kd of CM03 Fab to the Kd of individual clone [1] | Kd [4] | Binder
5 | 3260 pM | 3260 pM | ≥ 80% | 0.5 | – | Fab X395 (X384 VH and X380 VL) (Fab, V domains shown, Fab made in E. coli) VH: EVQLVESGAGVKQPGGTLRLTCTASGFSLTTYGVHWVRQAPGKGLEWVGVIWGDGRTDYDAAFMSRVTISKDTSKSTVYLQMNSLRAEDTAVYYCMRNRHDWFDYWGQGTTVTVSS VL: EIEMTQSPSSLSVSAGERATISCSASQDIRNSLNWYQQKPGQAPRLLIYYSSNLHTGVPARFSGSGSGTDFTLTISRLEPEDVAIYYCQQSNKLPLTFGSGTKVEIK
6 | 330 pM | 330 pM | ≥ 80% | 4.94 | – | Fab X393 (X385 VH and X379 VL) (Fab, V domains shown, Fab made in E. coli) VH: EVQLVQSGGGVKQPGETLRLTCTASGFSLTTYGVHWVRQAPGKGLEWVGVIWGDGRTDYDAAFMSRVTISKDTSKSTAYLQMNSLRAEDTAVYYCMRNRHDWFDYWGQGTTVTVSS VL: DILLTQSPSSLSATPGERATITCRASQGIRNNLNWYQQKPGQAPRLLIYYSSNLQSGVPSRFSGSGSGTDFTLTISRLQPEDVAAYYCQQSIKLPFTFGSGTKVEIK
7 | – | – | – | – | 1630 pM | mouse monoclonal antibody CM03 (14D10) (antibody, V domains shown, Mouse monoclonal antibody; also called murine MAb CM03) VH: QVKLQESGPGLVQPSQTLSITCTVSGFSLTTYGVHWVRQSPGKGLEWLGVIWGGGRTDYDAAFISRLSISKDNSKSQVFFKMNSLQANDTAIYYCVRNRHDWFDYWGQGTTVTVSS VL: DIQMTQSPSSLSASLGDRVTITCSASQGIRNSLNWYQQKPDGAVKLLIYYSSNLHSGVPSRFSGSGSGTDFSLTISNLEPEDIATYYCQQSIKLPFTFGSGTKLEIK
